Laboratory results taken from the Human Domainome abundance scans (Beltran et al. 2025).
± gives the uncertainty stated by the source.

B1: Zinc finger MYM-type protein 3, residues 405 to 444; numbered along this chain, Q14202 (parent)
chain: DATRCSICQKTGEVLHEVSNGSVVHRLCSDSCFSKFRANK

Variants of: B1
Assay: abundance fitness (aPCA) (normalised: wild type 0, dead -1); higher = more abundant; growth selection in yeast, the domain comes from the species named
Settings: Homo sapiens

Row | Variant | abundance fitness
1 | DATRCSICQKTGKVLHEVSNGSVVHRLCSDSCFSKFRANK | -0.049 ± 0.075
2 | DATRCSICQKTGLVLHEVSNGSVVHRLCSDSCFSKFRANK | -0.391 ± 0.057
3 | DATRCSICQKTGMVLHEVSNGSVVHRLCSDSCFSKFRANK | -0.074 ± 0.069
4 | DATRCSICQKTGNVLHEVSNGSVVHRLCSDSCFSKFRANK | -0.216 ± 0.086
5 | DATRCSICQKTGPVLHEVSNGSVVHRLCSDSCFSKFRANK | -0.236 ± 0.079
6 | DATRCSICQKTGQVLHEVSNGSVVHRLCSDSCFSKFRANK | -0.052 ± 0.072
7 | DATRCSICQKTGRVLHEVSNGSVVHRLCSDSCFSKFRANK | -0.19 ± 0.051
8 | DATRCSICQKTGSVLHEVSNGSVVHRLCSDSCFSKFRANK | -0.201 ± 0.054
9 | DATRCSICQKTGTVLHEVSNGSVVHRLCSDSCFSKFRANK | -0.111 ± 0.07
10 | DATRCSICQKTGVVLHEVSNGSVVHRLCSDSCFSKFRANK | -0.298 ± 0.057
11 | DATRCSICQKTGWVLHEVSNGSVVHRLCSDSCFSKFRANK | -0.696 ± 0.062
12 | DATRCSICQKTGEALHEVSNGSVVHRLCSDSCFSKFRANK | -0.173 ± 0.056
13 | DATRCSICQKTGECLHEVSNGSVVHRLCSDSCFSKFRANK | -0.453 ± 0.087
14 | DATRCSICQKTGEDLHEVSNGSVVHRLCSDSCFSKFRANK | -0.228 ± 0.075
15 | DATRCSICQKTGEELHEVSNGSVVHRLCSDSCFSKFRANK | -0.453 ± 0.073
16 | DATRCSICQKTGEFLHEVSNGSVVHRLCSDSCFSKFRANK | -0.068 ± 0.063
17 | DATRCSICQKTGEGLHEVSNGSVVHRLCSDSCFSKFRANK | -0.08 ± 0.052
18 | DATRCSICQKTGEHLHEVSNGSVVHRLCSDSCFSKFRANK | -0.667 ± 0.12
19 | DATRCSICQKTGEILHEVSNGSVVHRLCSDSCFSKFRANK | -0.029 ± 0.097
20 | DATRCSICQKTGEKLHEVSNGSVVHRLCSDSCFSKFRANK | -0.43 ± 0.069
21 | DATRCSICQKTGELLHEVSNGSVVHRLCSDSCFSKFRANK | -0.344 ± 0.056

Row | Variant | abundance fitness
22 | DATRCSICQKTGEMLHEVSNGSVVHRLCSDSCFSKFRANK | -0.029 ± 0.065
23 | DATRCSICQKTGENLHEVSNGSVVHRLCSDSCFSKFRANK | -0.087 ± 0.092
24 | DATRCSICQKTGEPLHEVSNGSVVHRLCSDSCFSKFRANK | -0.057 ± 0.067
25 | DATRCSICQKTGEQLHEVSNGSVVHRLCSDSCFSKFRANK | -0.142 ± 0.063
26 | DATRCSICQKTGERLHEVSNGSVVHRLCSDSCFSKFRANK | -0.374 ± 0.054
27 | DATRCSICQKTGESLHEVSNGSVVHRLCSDSCFSKFRANK | -0.185 ± 0.057
28 | DATRCSICQKTGETLHEVSNGSVVHRLCSDSCFSKFRANK | -0.033 ± 0.063
29 | DATRCSICQKTGEWLHEVSNGSVVHRLCSDSCFSKFRANK | -0.561 ± 0.066
30 | DATRCSICQKTGEYLHEVSNGSVVHRLCSDSCFSKFRANK | -0.461 ± 0.14
31 | DATRCSICQKTGEVEHEVSNGSVVHRLCSDSCFSKFRANK | -0.227 ± 0.062
32 | DATRCSICQKTGEVFHEVSNGSVVHRLCSDSCFSKFRANK | -0.092 ± 0.13
33 | DATRCSICQKTGEVGHEVSNGSVVHRLCSDSCFSKFRANK | -0.153 ± 0.056
34 | DATRCSICQKTGEVHHEVSNGSVVHRLCSDSCFSKFRANK | 0.017 ± 0.11
35 | DATRCSICQKTGEVIHEVSNGSVVHRLCSDSCFSKFRANK | 0.001 ± 0.07
36 | DATRCSICQKTGEVKHEVSNGSVVHRLCSDSCFSKFRANK | 0.079 ± 0.065
37 | DATRCSICQKTGEVNHEVSNGSVVHRLCSDSCFSKFRANK | -0.038 ± 0.15
38 | DATRCSICQKTGEVPHEVSNGSVVHRLCSDSCFSKFRANK | -0.033 ± 0.069
39 | DATRCSICQKTGEVQHEVSNGSVVHRLCSDSCFSKFRANK | 0.102 ± 0.059
40 | DATRCSICQKTGEVRHEVSNGSVVHRLCSDSCFSKFRANK | 0.07 ± 0.052
41 | DATRCSICQKTGEVSHEVSNGSVVHRLCSDSCFSKFRANK | 0.047 ± 0.065
42 | DATRCSICQKTGEVTHEVSNGSVVHRLCSDSCFSKFRANK | -0.141 ± 0.065

Row | Variant | abundance fitness
43 | DATRCSICQKTGEVVHEVSNGSVVHRLCSDSCFSKFRANK | -0.034 ± 0.055
44 | DATRCSICQKTGEVYHEVSNGSVVHRLCSDSCFSKFRANK | -0.142 ± 0.3
45 | DATRCSICQKTGEVLCEVSNGSVVHRLCSDSCFSKFRANK | -1.09 ± 0.17
46 | DATRCSICQKTGEVLDEVSNGSVVHRLCSDSCFSKFRANK | -0.379 ± 0.092
47 | DATRCSICQKTGEVLEEVSNGSVVHRLCSDSCFSKFRANK | -0.033 ± 0.061
48 | DATRCSICQKTGEVLFEVSNGSVVHRLCSDSCFSKFRANK | -0.208 ± 0.12
49 | DATRCSICQKTGEVLGEVSNGSVVHRLCSDSCFSKFRANK | -0.306 ± 0.058
50 | DATRCSICQKTGEVLIEVSNGSVVHRLCSDSCFSKFRANK | -0.701 ± 0.13
51 | DATRCSICQKTGEVLKEVSNGSVVHRLCSDSCFSKFRANK | -0.158 ± 0.075
52 | DATRCSICQKTGEVLLEVSNGSVVHRLCSDSCFSKFRANK | -0.645 ± 0.057
53 | DATRCSICQKTGEVLMEVSNGSVVHRLCSDSCFSKFRANK | -0.551 ± 0.074
54 | DATRCSICQKTGEVLNEVSNGSVVHRLCSDSCFSKFRANK | -0.252 ± 0.27
55 | DATRCSICQKTGEVLPEVSNGSVVHRLCSDSCFSKFRANK | -0.605 ± 0.078
56 | DATRCSICQKTGEVLQEVSNGSVVHRLCSDSCFSKFRANK | -0.053 ± 0.057
57 | DATRCSICQKTGEVLREVSNGSVVHRLCSDSCFSKFRANK | -0.121 ± 0.051
58 | DATRCSICQKTGEVLSEVSNGSVVHRLCSDSCFSKFRANK | -0.319 ± 0.057
59 | DATRCSICQKTGEVLTEVSNGSVVHRLCSDSCFSKFRANK | -0.352 ± 0.063
60 | DATRCSICQKTGEVLVEVSNGSVVHRLCSDSCFSKFRANK | -0.492 ± 0.061
61 | DATRCSICQKTGEVLYEVSNGSVVHRLCSDSCFSKFRANK | -0.466 ± 0.15
62 | DATRCSICQKTGEVLHAVSNGSVVHRLCSDSCFSKFRANK | -0.759 ± 0.068
